Laboratory results published in patent publication US20250186614A1, “COMPACT DRUG RESPONSIVE DOMAINS FOR REGULATION OF FUNCTION/ABUNDANCE AND DELIVERY OF POLYPEPTIDE PAYLOADS” (OBSIDIAN THERAPEUTICS, INC., priority 2022, published 2025).

Experiments:
[1] = clinically approved dosages 0.1-0.3 mg/kg of body weight, tissue/organ transplants; cited from earlier work
[2] = tested on: Jurkat cells; experiment: Tacrolimus serum experiments: dose response of FKBP13 constructs under different serum concentrations, GFP MFI; assay type: cell-based; conditions: increasing FBS, FIGS. 51-54
Experimental: Incubation with increasing FBS results in 2 fold increase in Ec50 with 80% FBS.

[3] = biological target: T1, FKBP13 (Homo sapiens, UniProt P26885); conditions: read-out: binding affinity for FKBP13; cited from earlier work
T1 sequence (P26885 22-142): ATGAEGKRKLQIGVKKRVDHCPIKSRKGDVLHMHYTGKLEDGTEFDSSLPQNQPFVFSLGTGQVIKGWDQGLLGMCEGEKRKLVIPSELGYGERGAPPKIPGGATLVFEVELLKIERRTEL

[4] = tested on: Jurkat cells; experiment: Tacrolimus dose response of FKBP13-AcGFP-mCherry constructs stably transduced into Jurkat cells, GFP MFI by flow cytometry; assay type: cell-based
In short: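 Jurkat E6-1 cells lentivirally transduced with FKBP13-AcGFP-mCherry constructs to 10-25% mCherry+ (day 5) were dosed with tacrolimus. GFP geometric MFI in mCherry+ cells was measured by flow cytometry and fitted to dose-response curves.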

[5] = tested on: HEK293 cells; experiment: Tacrolimus dose response of FKBP13 constructs transiently transfected into HEK293 cells, Celigo Image Cytometer; assay type: cell-based; conditions: FIGS. 5, 6, 8
From the text: In another experiment, several FKBP13 DRD constructs were transiently transfected into HEK293 cells, as described above, and analyzed using a Celigo Image Cytometer (Nexcelom, Lawrence, MA).
To test the effects of other substitutions instead of methionine at residue number 54 and leucine at position 93 FKBP13 DRD constructs were generated and were transiently transfected into HEK293 cells, as described above, and analyzed using a Celigo Image Cytometer (Nexcelom, Lawrence, MA).
In another experiment, to explore the possibility of further truncating FKBP13, constructs (FKBP-044, FKBP-083, FKBP-084, FKBP-085, and FKBP-086) were transiently transfected into HEK293 cells, as described above, and analyzed using a Celigo Image Cytometer (Nexcelom, Lawrence, MA). A combination of DRD-genic M54A with truncation of the N-terminal histidine lowers basal (FKBP-083).
In another experiment, several constructs (FKBP-044, FKBP-092, FKBP-093, FKBP-094, FKBP-095, FKBP-096 and FKBP-097) designed to explore additional DRD-genic mutations were transiently transfected into HEK293 cells, as described above, and analyzed using a Celigo Image Cytometer (Nexcelom, Lawrence, MA).
Other constructs (FKBP-091, FKBP-098, FKBP-099, FKBP-100, and FKBP-101) were transiently transfected into HEK293 cells, as described above, and analyzed using a Celigo Image Cytometer (Nexcelom, Lawrence, MA).
(§1) In another experiment, several constructs (FKBP-091, FKBP-102, FKBP-103, FKBP-104, FKBP-105 and FKBP-106), designed to combine the binding site mutation identified in FKBP-091 with novel DRD-genic mutations, were transiently transfected into HEK293 cells, as described above, and analyzed using a Celigo Image Cytometer (Nexcelom, Lawrence, MA). […]
as §1, with “several other” for “several”, “FKBP-107, FKBP-108, FKBP-109, FKBP-110,” for “FKBP-102, FKBP-103, FKBP-104, FKBP-105”, “FKBP-111),” for “FKBP-106),”

[6] = tested on: Jurkat cells; experiment: Sirolimus (rapamycin) dose response of FKBP13 constructs stably transduced into Jurkat cells, flow cytometry; assay type: cell-based; conditions: rapamycin, Table 14
Experimental: Normalized EC50 values were calculated from the mCherry normalized GFP MFI values, which accounted for any differences in mCherry intensity between samples.

Row | Molecule | Cmax [1] | increase in Ec50 with 80% FBS [2] | Kd [3] | EC90 ([4]; read-out: Tacrolimus EC90 (Norm), tacrolimus, normalized, Table 14) | EC90 ([4]; read-out: Tacrolimus EC90, tacrolimus, Table 14) | Fold Change ([4]; tacrolimus dose response, Jurkat cells stably transduced (FIG. 10), Table 5) | Fold Change ([4]; tacrolimus, Jurkat cells stably transduced, Table 6) | Tacrolimus FC ([4]; tacrolimus, fold change, Table 14) | performance / drug responsiveness in tacrolimus dose response [5] | EC90 ([6]; read-out: Rapamycin EC90) | Rapamycin FC ([6]; fold change) | EC90 ([6]; normalized, read-out: Rapamycin EC90 (Norm))
1 | C=CC[C@@H]1/C=C(\C)C[C@H](C)C[C@H](OC)[C@H]2O[C@@](O)(C(=O)C(=O)N3CCCC[C@H]3C(=O)O[C@H](/C(C)=C/[C@@H]3CC[C@@H](O)[C@H](OC)C3)[C@H](C)[C@@H](O)CC1=O)[C@H](C)C[C@@H]2OC [Tacrolimus, tacrolimus] | 0.02 to 0.068 µg/mL | 2 fold | 0.166 µM | – | – | – | – | – | – | – | – | –
2 | FKBP-091: FKBP13 DRD Q72R, Q84E, A117W, M54A; SEQ ID NO: 41 (protein, Description of sequence: FKBP13-AcGFP-mCherry Fusion; Construct Name: FKBP-091; FKBP13 DRD in Construct : FKBP13 (mutated to match FKBP12 active site Q72R Q84E A117W) (DRD - M54A)) HCPIKSRKGDVLHAHYTGKLEDGTEFDSSLPRNQPFVFSLGTGEVIKGWDQGLLGMCEGEKRKLVIPSELGYGERGWPPKIPGGATLVFEVELLKIER | – | – | – | 0.117 µM | 0.111 µM | 12.36 | 11.29 | 12.4 | superior drug responsiveness | 0.398 µM | 3.2 | 0.414 µM
